# Experimental data published in a protein production outcome set (Wang et al. 2014).
# Assay: label from the status in PepcDB records
# 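Note: failed if final PepcDB status was selected cloned or expressed and not failed if soluble or beyond.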
row,Sequence,protein production
1,MTRLAFVRKKEKNCGQCRICEVSCPMGIETENAEKYKGECISCIKCVEICPRYNMQLNFANQPVNPRYTSSLTVAGLFAVFSALSFLPSAKKIDTAKYNAIPSFADEDYQTDEENENINSSDNKQVETQQDYQAEIAQNNSQEANTSQNQISDQAQENAMTSKYQQNQSAAESYNSTETNQKSANVQSKTFEQAAENSQKTSLEKSQGSVQNSTYPVSSSNSSDESQQENVQANLSNATETSTQNFKVSNNTSETPKGISKIYKDGTYTGEGFGYRPGLVVEVTIKDDKITKIKIVSHNETQSFAQLPFEIIPQEIIQNQSTNVDIVSGATRTSYGIIMAVEDALNKAKIENESSLQN,failed
2,MTRNRRRIAFAAILAMATTAHAQQGQVLTTQDEIGGVYEGTFRGGLQHGTGTYRLPNGYEYSGEWVDGEIRGRGVARFPNGSVYEGSFAQGKPEGMGKITFSDGGTYEGEWSNGVINGQGVAVYANGVRYEGGFRDARHHGKGVMQSPGGYVYEGDWADGQKEGLGKITYPDGAVYEGGIVAGQRHGEGTLTLPDGLVYVGFWADGQINGKGTLTQANGDVYEGDLIAGRREGKGKVTYANGDVYQGDFTDDRREGQGIFTGTDGYSYAGSWVAGQIEGQGRVTYPDGSVYEGNFRADLADGQGKITYPDGSSYEGEWVAGVIEGTGTAIYANGIVYKGTFKNAKNHGQGVMTYADGYRYEGEWQDGVRHGQGKATYPDGSVYTGQYVNGQREGDGEIVMADGFRYKGQWQSGKISGIGVATYANGDIYEGHFRNGKRQGEGTMKYASGQEEKGNWDNGALTKGAAASDG,failed
3,MTRPLRWWKRACPGAALRRDVNAFPPPSLAKLSAVFTIRRQPELDRRPQGASAGGALQALIAALPFALRPSRLSRQAKRPWTRACRRRLPATVGAGSLAAMDSAQPNTAAARYKSFAAFYPFYMTEHANPVSRRLHVVGTSLVIVCLVLGVFRDWRFFIAAPVIGYGFAWIGHFVFEKNRPATFKYPVYSLMGDFRLWFETVTGRRKF,failed
4,MTRPMPESIDERIKAALSKRGIDELYTHQYSAFQYVQKGESIVTVTPTASGKTLCYNLPVLQSIAQDETNRALYLFPTKALAQDQKSELNEIIDEMGIDIKSFTYDGDTSPAIRQKVRKAGHIVITNPDMLHSAILPHHTKWVSLFENLKYIVIDELHTYRGVFGSHVANVIRRLKRICRFYGSDPVFICTSATIANPKELGEQLTGKPMRLVDDNGAPSGRKHFVFYNPPIVNKPLNIRRSATAEVNELAKEFLKNKVQTIVFARSRVRVEIILSHIQELVKKEIGTKSIRGYRGGYLPKERREIERGLREGDILGVVSTNALELGVDIGQLQVCVMTGYPGSVASAWQQAGRAGRRHGESLIIMVANSTPIDQYIVRHPEYFFNRSPESARINPENLIILVDHLKCAAYELPFRADEEFGAMEVSDILEYLQEEAVLHRNGERYHWASESFPASNISLRSASQENVVIVDQSDIANVRIIGEMDRFSAMTLLHDEAIYLHEGVQYQVEKLDWDHKKAYVRKVDVEYYTDANLAVQLKVLEIDKTKEKSRTSLHYGDVTVNALPTIFKKIKMTTFENIGSGPIHLPEEELHTSAAWLEIKTADEDIGEKTLEQLLLGISNVLQHIVPVYIMCDRNDVHVVSQIKAAHTGLPTIFLYDHYPGGIGLAEEVFKRFSDINEAAKQLITHCPCHDGCPSCIGTEIEGIKAKERILQLLDQMSLEHHHHHH,not failed
5,MTRSEQNPVLFLAPDNVLWLLYTAQKSGNQDTAIVRYRQSTDLGATWGEIGTLLDQPGTFIRQPITVLENGDWLLPVFYCRVQPGEKWVGNDDDSAVKISSDQGKTWREYPVPNSTGCVHMNITPLQDGTLLALYRSRWADFIYQSRSTDGGKTWSEPVATDLPNNNSSIQVTTLKNGHLALVFNHMSAADATDRRLSLYDEIEDEEDKASGAKMPEVQAGDRSAFWGAPRAPMTLAISEDGGKSWPYQRNIEVGDGYCMTNNSTEKLNREFSYPSVKQAPDGKLHVAFTYFRQAIKHVVVSEEWVKAGLEHHHHHH,failed
6,MTRSQTRPRRQALAEILGLMGLLVAGGLLAGQGGQTLARSVGGLGGASAPMPSRPWHGSNHTPLPSRGDGMAALDHNLITAASIGDLDLVNRLLKAGASAQATDERGRTALLAAVYNRRGDVMLVLIQAGADVNRKDDEGNSPFLLAAATNQIDVVRLALSHGADLNSTDRYDGTALIAASQHGNVEIVKLLISAGVPVDRVNQLGWTALLEAIILGDGSSRYEDIVQALLDAGADANLADREGVTPSRHARERGYKTMVRMLMRARGH,failed
7,MTRSSNIPADATPNPHATAEQVAAARHDSKLAQVLYHDWEAENYDEKWSISYDQRCVDYARGRFDAIVPDEVIAQLPYDRALELGCGTGFFLLNLIQAGVARRGSVTDLSPGMVKVATRNGQALGLDIDGRVADAEGIPYDDDAFDLVVGHAVLHHIPDVELSLREVVRVLKPGGRFVFAGEPTTVGDGYARTLSTLTWRVVTNATKLPGLRGWRRPQGELDESSRAAALEALVDLHTFTPQDLQRIAHNAGAVEVQTATEEFTAAMLGWPLRTFECTVPPGRLGWGWARFAFTSWKTLGWVDANVWRHVVPKGWFYNVMITGVKPS,failed
8,MTRTEYLAELDKYLRKLPREDYHEAMEYYIEYFDEAGPDKESQVIDDLGNPKEAASEIISNVLGKHLATPEKTPKNRATIIGLTILSLFAAPIALPVLLALILFIIACLMLGLTAIFAAYIFGLAGILVAGVTLFESLTLIGSSIPAQAMGIGSALLCFGGGLLIWIIATAFLRFSGRAFVAFIKWISNKKGAQA,failed
9,MTRVDVVTRTLPPNEVSEANPWDTDRFWTVPNVLSVIRLIGVPIFLWLALGPRADGWAVAVLAVAGLTDWLDGRIARRWHQVSRIGQMLDPVADRLYIFATVIALTLRDVIPLWLVIVLIARDVCMACLMPALRTRGFTSLPVHFVGKAATFCLLYSFPLVLLGRFGTGGWTACRVLGWAFAVWGTGLYWWAFFLYLVQTIRIVRTLPRISSRGEYS,failed
10,MTRYGLRARVITLTLAPTLIIGLLLSGFFSFNRYQDLEKQVITTGNSIIEPLAIASESHLLAESREAVRRLISYAHRKNSKLVRSIAVFDEHHELFVTSNFHPNFEALMFPKDKPIPKLGNSEIYENSLILRVPILSEGHYLSELSNENQGTKAIGYIAVEMDLSSLRLQQYQEVFSAFLVLILGLGLASVFASRLMHDVTQPITHMKNVVDRIRRGHLDVRIEGKMHGELDQLKNGINAMAVSLSEYHVEMQHSIDQATSDLRETLEQLEIQNVELDIAKKRAQEAARVKSEFLANMSHELRTPLNGVIGFTRQMLKTQLSNSQTDYLQTIEKSANNLLNIINDILDFSKLEAGKLALENIPFDFRESLEEVINLQATSAHEKGLEITLKVDPKIPPGLVGDPLRIQQILTNLVGNSIKFTERGNIDVSVEMRSQAGDSVELQFMVRDTGIGISERQQAQLFQAFSQADASISRRYGGTGLGLVITQKLVSQMGGEISLTSRLHQGSTFWFTLRLNSTEMPMSDLIEVELLTGKQLLLVEPNMQAASVTQQILSQEGILVTYRSSLPENEEHYDYVLLNLAANQTYDEQSVAAWIEQAKRMAPSVIMGTPSTELALADQIMTEHQIQCLTKPLSRRKLLQSLINEHVEAPQAITAPVETEESERLPLTVLAVDDNPANLKLISALLKERVETVTACSNGQQAVNLATEKKYDLIFMDIQMPLMDGVTACQNIKELELNKDTPVIAVTAHAMAGERDRLLAAGMDDYLTKPIEEHVLQQVLVHWNPNTCTESIGKVAPSYVDEPESEAPATAENTQPDVIIDWQAALKQSANKEDLAKDMLRMLIDFIPEVEEVVDHALEQDDYSREELIHVIHKLHGSSSYCGVPRLKSLCATLEHALRSGASIEEIEPEMFELQDEMIKVTTTAKLYLEQ,failed
11,MTSAQKPVFSPSDLQTWLEIATEAVLAAGAEIFSLWGKVQQIQEKGRAGDLVTEADRQAEAIILEIIKRRCPDHAILAEESGQLGQVDNPFCWAIDPLDGTTNFAHSYPVSCVSIGLLIQDIPTVGVVYNPFRQELFRAATSLGATLNRRPIQVSTTASLDKSLLVTGFAYDRVKTLDNNYPEFCYLTHLTQGVRRSGSAAIDLIDVACGRLDGYWERGINPWDMAAGIVIVREAGGIVSAYDCSPLDLSTGRILATNGKIHQELSQALAATPQWFQQYAAARAQKI,failed
12,MTSFEDADTEETVTCLQMTVYHPGQLQCGIFQSISFNREKLPSSEVVKFGRNSNICHYTFQDKQVSRVQFSLQLFKKFNSSVLSFEIKNMSKKTNLIVDSRELGYLNKMDLPYRCMVRFGEYQFLMEKEDGESLEFFETQFILSPRSLLQENNWPPHRPIPEYGTYSLCSSQSSSPTEMDENES,failed
13,MTSFLSFSAISAHPPTFSGASFRPRSFSPRLFKSCVKCTYAEAGLSSASWSAPIDIVADVKSERVVVLGGNGFVGSAICKAAISNGIEVVSVSRSGRPNFEDSWLDQVTWVTGDVFYLNWDEVLLGATAVVSTIGGFGNEEQMKRINGEANVTAVNAAKDFGVPKFVLITVHDYNLPPFILSNGYFTGKRNAEAELLSKYPTSGVVLRPGFIYGKRKVNGIEVPLDLVGEPLDKIYDSAERFIRPLRSLPASDLILAPPVNVDDLALAVINAVKDDDFFGIFTIEQIKEAAAKMRA,failed
14,MTSGGNSIEPSVVAEAEKMLFCYQYDQTITISITSSADPCPLCNGGFLDEYVDPNPNPIPNLILPMSDPISSRFSFIPVMDFTNPSFLGESMEPQSTQQQLNAFDPNQLSDQANPLAGNHGDYFFGRGLEDLI,failed
15,MTSHKPYWPIGVFTSVDAGLGVHLEVAQDLKVPTVQVHAPHPHTRTREHAQAFRAKCDAAGIQVTVIFGGFDGESYADIPTTARTVGLVPLETRASRVAEMKEISDFASWVGCPAIGLHIGFVPESSSPDYSELVRVTQDLLTHAANHGQAVHLETGQESADHLLEFIEDVNRPNLGINFDPANMILYGTGNPIEALRKVARYVRSIHCKDALWAPVNERGKSWGQEVALGTGDVGMEAYLTTLWEIGYRGPLTIEREIPHDPVQQKKDLASALELLTGLRKKIANC,not failed
16,MTSIHVQVPATTANIGAGFDCLGAALSLHNQFQFRLAGESEPFFSLELVGADVETQKLEATADNLLYRAFAKVFATLGQPVPHVNIAIDLKVPLSRGLGSSATAIVGGLVGANALAGSPLSQREIMNLAIEMEGHPDNVVPALLGGCQLSVKHQQDWVI,failed
17,MTSKKNSDVIYKSSSNILNEMRAGLIKGAGQDMERIKKRPLIAIANSHSELTTGHAHLAGLGAKVKQGIIAAGGEFAEFNVPAPCDGIAMAHDGMRYVLAQRDLIADIVETHVRSQAFDAVVFIAGCDKINPGMMMAMGRLDLPSLFLAGGPGQMNIRNTPTFNGNIDHGNYFNSPLEFKETFNCASCGACEFMGTANTFQCLAEALGICLPGSANIPAWHSDKLAAARATGEHIVHLFKEGITARQIMTKEAFNNALVMNMAIGGSTNAALHLPAIAHSAGIEMDIKAFETVDHIPTLLAISPNGPYGVQDLWAAGGMPAVMKVMQSDLDTSCLTVTGLPLQATIDNATILNPKVIPERSKPNRQEPGITVLRGNLAPEGCVIKQAGVKPELMYTSGPAICFDSEDDAINMIQDGKLKEGQVIVLRYMGPKGAPGMPEMLGATLALKVAGLSSASLITDGRFSGATSGPCVGHITPEASNGGFIAFIEDGDIITVDIKNRSIHCDVSDEEIEKRKQNWAPTIKPVAFGFMERYRKHVKTASEGAILD,failed
18,MTSLEEITKAIMADSQNKVFTEKNIEPLFAAPKTARINIVGQAPGIKAQESRLYWNDKSGDRLREWMGVDYDTFYHSGYFAVIPMDFYYPGKGKSGDLPPRKGFAQKWHQPILDLLPDIQLTILIGNYAQKYYLHQKSSVKLTDTVAHYKKYLPDYFPLVHPSPRNQIWMSRHPWFEAQVVPDLKKIIQQIIQSS,not failed
19,MTSLSQFEPLFLEFMQQEMQVDAAHDIEHVKRVVKTAKQLCDEENADIAIVLPAAYLHDCFTYPKDHPNRKQSSAIAAKKAIAYLESIQYPQHYHDAIAHAIEAHSFSANIRPNTLEAQIVQDADRLDALGAIGVTRCIQVSTHFNAQLYNDNDMFAKERELNDKQFTVDHFQTKLFKIADTMNTESAKLEANKRKAFMQTYLKQLHDEVTALEHHHHHH,not failed
